Assay results published in patent publication US20200002421A1 (AbbVie / Abbott, published 2020).

T1: Human full length B7-H3 (human, UniProt Q5ZPR3 29-534)
T1 sequence: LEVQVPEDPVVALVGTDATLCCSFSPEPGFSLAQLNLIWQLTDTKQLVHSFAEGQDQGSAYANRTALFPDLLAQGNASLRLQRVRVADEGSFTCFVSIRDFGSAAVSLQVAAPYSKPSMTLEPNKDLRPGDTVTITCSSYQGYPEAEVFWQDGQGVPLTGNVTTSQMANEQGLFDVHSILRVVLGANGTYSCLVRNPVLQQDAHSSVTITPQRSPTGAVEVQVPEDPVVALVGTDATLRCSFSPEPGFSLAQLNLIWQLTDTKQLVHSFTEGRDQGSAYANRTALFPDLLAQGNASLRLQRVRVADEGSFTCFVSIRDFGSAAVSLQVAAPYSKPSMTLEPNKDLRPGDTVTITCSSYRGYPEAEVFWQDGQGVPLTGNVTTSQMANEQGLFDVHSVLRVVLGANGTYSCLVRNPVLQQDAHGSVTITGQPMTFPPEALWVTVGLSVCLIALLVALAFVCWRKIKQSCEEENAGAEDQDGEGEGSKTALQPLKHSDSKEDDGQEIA

B1: huAb3v2.5-YG (antibody, human IgG1, kappa, L234A L235A, V domains shown)
VH: EVQLVQSGAEVKKPGSSVKVSCKASGYTFSSYWMHWVRQAPGQGLEWIGLIHPESGSTNYNEMFKNRATLTVDRSTSTAYMELSSLRSEDTAVYYCAGGGRLYFDYWGQGTTVTVSS
VL: DIVMTQSPLSLPVTPGEPASISCRSSQSLVHSNRDTYLRWYLQKPGQSPQLLIYKVSNRFSGVPDRFSGSGSGTDFTLKISRVEAEDVGVYYCSQSTHVPYTFGGGTKVEIKR
modifications: synthon YG on interchain Cys
B2: huAb3v2.6-AAD (antibody, human IgG1, kappa, L234A L235A, V domains shown)
VH: EVQLVQSGAEVKKPGSSVKVSCKASGYTFSSYWMHWVRQAPGQGLEWIGLIHPESGSTNYNEMFKNRATLTVDRSTSTAYMELSSLRSEDTAVYYCAGGGRLYFDYWGQGTTVTVSS
VL: DIVMTQSPLSLPVTPGEPASISCRSSQSLVHSNQDTYLRWYLQKPGQSPQLLIYKVSNRFSGVPDRFSGSGSGTDFTLKISRVEAEDVGVYYCSQSTHVPYTFGGGTKVEIKR
modifications: synthon AAD on interchain Cys
B3: huAb3v2.6-YG (antibody, human IgG1, kappa, L234A L235A, V domains shown)
VH: EVQLVQSGAEVKKPGSSVKVSCKASGYTFSSYWMHWVRQAPGQGLEWIGLIHPESGSTNYNEMFKNRATLTVDRSTSTAYMELSSLRSEDTAVYYCAGGGRLYFDYWGQGTTVTVSS
VL: DIVMTQSPLSLPVTPGEPASISCRSSQSLVHSNQDTYLRWYLQKPGQSPQLLIYKVSNRFSGVPDRFSGSGSGTDFTLKISRVEAEDVGVYYCSQSTHVPYTFGGGTKVEIKR
modifications: synthon YG on interchain Cys
B4: huAb3v2.6-ZT (antibody, human IgG1, kappa, L234A L235A, V domains shown)
VH: EVQLVQSGAEVKKPGSSVKVSCKASGYTFSSYWMHWVRQAPGQGLEWIGLIHPESGSTNYNEMFKNRATLTVDRSTSTAYMELSSLRSEDTAVYYCAGGGRLYFDYWGQGTTVTVSS
VL: DIVMTQSPLSLPVTPGEPASISCRSSQSLVHSNQDTYLRWYLQKPGQSPQLLIYKVSNRFSGVPDRFSGSGSGTDFTLKISRVEAEDVGVYYCSQSTHVPYTFGGGTKVEIKR
modifications: synthon ZT on interchain Cys
B5: huAb3v2.6-CZ (antibody, human IgG1, kappa, L234A L235A, V domains shown)
VH: EVQLVQSGAEVKKPGSSVKVSCKASGYTFSSYWMHWVRQAPGQGLEWIGLIHPESGSTNYNEMFKNRATLTVDRSTSTAYMELSSLRSEDTAVYYCAGGGRLYFDYWGQGTTVTVSS
VL: DIVMTQSPLSLPVTPGEPASISCRSSQSLVHSNQDTYLRWYLQKPGQSPQLLIYKVSNRFSGVPDRFSGSGSGTDFTLKISRVEAEDVGVYYCSQSTHVPYTFGGGTKVEIKR
modifications: synthon CZ on interchain Cys
B6: huAb3v2.6-LB (antibody, human IgG1, kappa, L234A L235A, V domains shown)
VH: EVQLVQSGAEVKKPGSSVKVSCKASGYTFSSYWMHWVRQAPGQGLEWIGLIHPESGSTNYNEMFKNRATLTVDRSTSTAYMELSSLRSEDTAVYYCAGGGRLYFDYWGQGTTVTVSS
VL: DIVMTQSPLSLPVTPGEPASISCRSSQSLVHSNQDTYLRWYLQKPGQSPQLLIYKVSNRFSGVPDRFSGSGSGTDFTLKISRVEAEDVGVYYCSQSTHVPYTFGGGTKVEIKR
modifications: synthon LB on interchain Cys
B7: huAb3v2.6-ZZ (antibody, human IgG1, kappa, L234A L235A, V domains shown)
VH: EVQLVQSGAEVKKPGSSVKVSCKASGYTFSSYWMHWVRQAPGQGLEWIGLIHPESGSTNYNEMFKNRATLTVDRSTSTAYMELSSLRSEDTAVYYCAGGGRLYFDYWGQGTTVTVSS
VL: DIVMTQSPLSLPVTPGEPASISCRSSQSLVHSNQDTYLRWYLQKPGQSPQLLIYKVSNRFSGVPDRFSGSGSGTDFTLKISRVEAEDVGVYYCSQSTHVPYTFGGGTKVEIKR
modifications: synthon ZZ on interchain Cys
B8: huAb3v2.6-TV (antibody, human IgG1, kappa, L234A L235A, V domains shown)
VH: EVQLVQSGAEVKKPGSSVKVSCKASGYTFSSYWMHWVRQAPGQGLEWIGLIHPESGSTNYNEMFKNRATLTVDRSTSTAYMELSSLRSEDTAVYYCAGGGRLYFDYWGQGTTVTVSS
VL: DIVMTQSPLSLPVTPGEPASISCRSSQSLVHSNQDTYLRWYLQKPGQSPQLLIYKVSNRFSGVPDRFSGSGSGTDFTLKISRVEAEDVGVYYCSQSTHVPYTFGGGTKVEIKR
modifications: synthon TV on interchain Cys
B9: huAb3v2.6-SE (antibody, human IgG1, kappa, L234A L235A, V domains shown)
VH: EVQLVQSGAEVKKPGSSVKVSCKASGYTFSSYWMHWVRQAPGQGLEWIGLIHPESGSTNYNEMFKNRATLTVDRSTSTAYMELSSLRSEDTAVYYCAGGGRLYFDYWGQGTTVTVSS
VL: DIVMTQSPLSLPVTPGEPASISCRSSQSLVHSNQDTYLRWYLQKPGQSPQLLIYKVSNRFSGVPDRFSGSGSGTDFTLKISRVEAEDVGVYYCSQSTHVPYTFGGGTKVEIKR
modifications: synthon SE on interchain Cys
B10: huAb3v2.6-XW (antibody, human IgG1, kappa, L234A L235A, V domains shown)
VH: EVQLVQSGAEVKKPGSSVKVSCKASGYTFSSYWMHWVRQAPGQGLEWIGLIHPESGSTNYNEMFKNRATLTVDRSTSTAYMELSSLRSEDTAVYYCAGGGRLYFDYWGQGTTVTVSS
VL: DIVMTQSPLSLPVTPGEPASISCRSSQSLVHSNQDTYLRWYLQKPGQSPQLLIYKVSNRFSGVPDRFSGSGSGTDFTLKISRVEAEDVGVYYCSQSTHVPYTFGGGTKVEIKR
modifications: synthon XW on interchain Cys
B11: huAb3v2.5-KZ (antibody, human IgG1, kappa, L234A L235A, V domains shown)
VH: EVQLVQSGAEVKKPGSSVKVSCKASGYTFSSYWMHWVRQAPGQGLEWIGLIHPESGSTNYNEMFKNRATLTVDRSTSTAYMELSSLRSEDTAVYYCAGGGRLYFDYWGQGTTVTVSS
VL: DIVMTQSPLSLPVTPGEPASISCRSSQSLVHSNRDTYLRWYLQKPGQSPQLLIYKVSNRFSGVPDRFSGSGSGTDFTLKISRVEAEDVGVYYCSQSTHVPYTFGGGTKVEIKR
modifications: synthon KZ on interchain Cys
B12: huAb3v2.6-WD (antibody, human IgG1, kappa, L234A L235A, V domains shown)
VH: EVQLVQSGAEVKKPGSSVKVSCKASGYTFSSYWMHWVRQAPGQGLEWIGLIHPESGSTNYNEMFKNRATLTVDRSTSTAYMELSSLRSEDTAVYYCAGGGRLYFDYWGQGTTVTVSS
VL: DIVMTQSPLSLPVTPGEPASISCRSSQSLVHSNQDTYLRWYLQKPGQSPQLLIYKVSNRFSGVPDRFSGSGSGTDFTLKISRVEAEDVGVYYCSQSTHVPYTFGGGTKVEIKR
modifications: synthon WD on interchain Cys
B13: huAb3v2.6-TX (antibody, human IgG1, kappa, L234A L235A, V domains shown)
VH: EVQLVQSGAEVKKPGSSVKVSCKASGYTFSSYWMHWVRQAPGQGLEWIGLIHPESGSTNYNEMFKNRATLTVDRSTSTAYMELSSLRSEDTAVYYCAGGGRLYFDYWGQGTTVTVSS
VL: DIVMTQSPLSLPVTPGEPASISCRSSQSLVHSNQDTYLRWYLQKPGQSPQLLIYKVSNRFSGVPDRFSGSGSGTDFTLKISRVEAEDVGVYYCSQSTHVPYTFGGGTKVEIKR
modifications: synthon TX on interchain Cys
B14: huAb3v2.6-AAA (antibody, human IgG1, kappa, L234A L235A, V domains shown)
VH: EVQLVQSGAEVKKPGSSVKVSCKASGYTFSSYWMHWVRQAPGQGLEWIGLIHPESGSTNYNEMFKNRATLTVDRSTSTAYMELSSLRSEDTAVYYCAGGGRLYFDYWGQGTTVTVSS
VL: DIVMTQSPLSLPVTPGEPASISCRSSQSLVHSNQDTYLRWYLQKPGQSPQLLIYKVSNRFSGVPDRFSGSGSGTDFTLKISRVEAEDVGVYYCSQSTHVPYTFGGGTKVEIKR
modifications: synthon AAA on interchain Cys
B15: huAb3v2.6-YY (antibody, human IgG1, kappa, L234A L235A, V domains shown)
VH: EVQLVQSGAEVKKPGSSVKVSCKASGYTFSSYWMHWVRQAPGQGLEWIGLIHPESGSTNYNEMFKNRATLTVDRSTSTAYMELSSLRSEDTAVYYCAGGGRLYFDYWGQGTTVTVSS
VL: DIVMTQSPLSLPVTPGEPASISCRSSQSLVHSNQDTYLRWYLQKPGQSPQLLIYKVSNRFSGVPDRFSGSGSGTDFTLKISRVEAEDVGVYYCSQSTHVPYTFGGGTKVEIKR
modifications: synthon YY on interchain Cys
B16: huAb3v2.6-SR (antibody, human IgG1, kappa, L234A L235A, V domains shown)
VH: EVQLVQSGAEVKKPGSSVKVSCKASGYTFSSYWMHWVRQAPGQGLEWIGLIHPESGSTNYNEMFKNRATLTVDRSTSTAYMELSSLRSEDTAVYYCAGGGRLYFDYWGQGTTVTVSS
VL: DIVMTQSPLSLPVTPGEPASISCRSSQSLVHSNQDTYLRWYLQKPGQSPQLLIYKVSNRFSGVPDRFSGSGSGTDFTLKISRVEAEDVGVYYCSQSTHVPYTFGGGTKVEIKR
modifications: synthon SR on interchain Cys
B17: huAb3v2.6-KZ (antibody, human IgG1, kappa, L234A L235A, V domains shown)
VH: EVQLVQSGAEVKKPGSSVKVSCKASGYTFSSYWMHWVRQAPGQGLEWIGLIHPESGSTNYNEMFKNRATLTVDRSTSTAYMELSSLRSEDTAVYYCAGGGRLYFDYWGQGTTVTVSS
VL: DIVMTQSPLSLPVTPGEPASISCRSSQSLVHSNQDTYLRWYLQKPGQSPQLLIYKVSNRFSGVPDRFSGSGSGTDFTLKISRVEAEDVGVYYCSQSTHVPYTFGGGTKVEIKR
modifications: synthon KZ on interchain Cys
B18: huAb13v1-TV (antibody, human IgG1, kappa, L234A L235A, V domains shown)
VH: EVQLQESGPGLVKPSETLSLTCAVTGYSITSGYSWHWIRQFPGNGLEWMGYIHSSGSTNYNPSLKSRISISRDTSKNQFFLKLSSVTAADTAVYYCAGYDDYFEYWGQGTTVTVSS
VL: DIQMTQSPSSLSASVGDRVTITCKASQNVGFNVAWYQQKPGKSPKALIYSASYRYSGVPSRFSGSGSGTDFTLTISSLQPEDFAEYFCQQYNWYPFTFGQGTKLEIKR
modifications: synthon TV on interchain Cys
B19: huAb13v1-AAA (antibody, human IgG1, kappa, L234A L235A, V domains shown)
VH: EVQLQESGPGLVKPSETLSLTCAVTGYSITSGYSWHWIRQFPGNGLEWMGYIHSSGSTNYNPSLKSRISISRDTSKNQFFLKLSSVTAADTAVYYCAGYDDYFEYWGQGTTVTVSS
VL: DIQMTQSPSSLSASVGDRVTITCKASQNVGFNVAWYQQKPGKSPKALIYSASYRYSGVPSRFSGSGSGTDFTLTISSLQPEDFAEYFCQQYNWYPFTFGQGTKLEIKR
modifications: synthon AAA on interchain Cys
B20: huAb13v1-AAD (antibody, human IgG1, kappa, L234A L235A, V domains shown)
VH: EVQLQESGPGLVKPSETLSLTCAVTGYSITSGYSWHWIRQFPGNGLEWMGYIHSSGSTNYNPSLKSRISISRDTSKNQFFLKLSSVTAADTAVYYCAGYDDYFEYWGQGTTVTVSS
VL: DIQMTQSPSSLSASVGDRVTITCKASQNVGFNVAWYQQKPGKSPKALIYSASYRYSGVPSRFSGSGSGTDFTLTISSLQPEDFAEYFCQQYNWYPFTFGQGTKLEIKR
modifications: synthon AAD on interchain Cys

molecular target: T1, Human full length B7-H3; experiment: cell-based or functional assay

Row | Binder | EC50 nM H1650 (in vitro tumor cell cytotoxicity)
1 | B1 | 0.71 nM
2 | B2 | 0.85 nM
3 | B3 | 0.68 nM
4 | B4 | 1.11 nM
5 | B5 | 0.4 nM
6 | B6 | 2.07 nM
7 | B7 | 1.35 nM
8 | B8 | 0.52 nM
9 | B9 | 1.01 nM
10 | B10 | 2.4 nM
11 | B11 | 0.87 nM
12 | B12 | 0.79 nM
13 | B13 | 0.47 nM
14 | B14 | 1.24 nM
15 | B15 | 0.72 nM
16 | B16 | 0.71 nM
17 | B17 | 5.52 nM
18 | B18 | 0.43 nM
19 | B19 | 0.37 nM
20 | B20 | 0.21 nM
